Data published in the supplement of paper PMC12042874.
± gives the uncertainty stated by the source.

Test: amyloid nucleation score (Sup35N fusion, yeast selection) (log enrichment); library NNK3; higher = more nucleation; inactive = no reads after selection
Outline: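 Sup35N fusions to peptides of 20 random codons were expressed in psi-negative yeast, induced 24 hours with 100 μM copper sulfate, and grown 7 days at 30°C on medium lacking adenine and uracil. Input and output plasmid inserts were sequenced by Illumina. The nucleation score is the DiMSum log enrichment of output over input reads, centred on the mode score of non-aggregating sequences. Sequences with under 100 input reads were excluded.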

For MRHEHAYSIPAHCIYELIMM, which amyloid nucleation score is on record?
Its amyloid nucleation score is “inactive”.

For MRLADLGMLGARTDQDRLPT, which amyloid nucleation score is on record?
Its amyloid nucleation score is “inactive”.

For MRLRLYINVSG, which amyloid nucleation score is on record?
The amyloid nucleation score was “inactive”.

With MRNLGGLCIALPEVVEGTDF as the substance, how does the amyloid nucleation score read?
Its amyloid nucleation score is “inactive”.

With MRQIAQRCRSGNAACIGSLG as the substance, how does the amyloid nucleation score read?
The amyloid nucleation score was 0.664 ± 0.23.

For MRRKDKNIRVDYRVAGGYRD, which amyloid nucleation score is on record?
The amyloid nucleation score was “inactive”.

Which amyloid nucleation score does the source give for MRSMVKLSCDERVCFVISGE here?
Its amyloid nucleation score is “inactive”.

Which amyloid nucleation score does the source give for MRSSIPIYVLMLIALSENSP here?
The amyloid nucleation score was “inactive”.

Which amyloid nucleation score does the source give for MSCIFVSKKFLRLELGSSLY here?
Its amyloid nucleation score is “inactive”.

Which amyloid nucleation score does the source give for MSFRRIFSSLIYSLRRSSAN here?
The amyloid nucleation score was “inactive”.

With MSGEFVV as the substance, how does the amyloid nucleation score read?
The amyloid nucleation score was “inactive”.

For MSGTLCPSHNILETDCRVQV, which amyloid nucleation score is on record?
The amyloid nucleation score was “inactive”.

With MSIVAGENLIGKV as the substance, how does the amyloid nucleation score read?
The amyloid nucleation score was “inactive”.

For MSLLGQ, which amyloid nucleation score is on record?
Its amyloid nucleation score is “inactive”.

With MSLLS as the substance, how does the amyloid nucleation score read?
The amyloid nucleation score was “inactive”.

With MSLVFRMSPHIQLVGWVHGR as the substance, how does the amyloid nucleation score read?
Its amyloid nucleation score is “inactive”.

Which amyloid nucleation score does the source give for MSNGIVYNELFSVVRWS here?
Its amyloid nucleation score is 1.67 ± 0.071.

For MSNLCDLHKN, which amyloid nucleation score is on record?
The amyloid nucleation score was “inactive”.

Which amyloid nucleation score does the source give for MSSHFSSKAFGFHYGF here?
Its amyloid nucleation score is “inactive”.

With MSVACFSLASVFQWGFFASC as the substance, how does the amyloid nucleation score read?
The amyloid nucleation score was “inactive”.

Which amyloid nucleation score does the source give for MSVLC here?
The amyloid nucleation score was “inactive”.

For MSVRG, which amyloid nucleation score is on record?
The amyloid nucleation score was “inactive”.

Which amyloid nucleation score does the source give for MTAMSFKGYAVIGGVIDRCR here?
Its amyloid nucleation score is “inactive”.

Which amyloid nucleation score does the source give for MTAVVDRTSNGYSYVTGHLL here?
Its amyloid nucleation score is “inactive”.

With MTDFKSTLSTTSMFTGESLI as the substance, how does the amyloid nucleation score read?
Its amyloid nucleation score is “inactive”.

Which amyloid nucleation score does the source give for MTLRRKLSMTAV here?
The amyloid nucleation score was “inactive”.

Which amyloid nucleation score does the source give for MTPMRAAMTLICHMPARRFS here?
Its amyloid nucleation score is “inactive”.

With MTPTMDENSFLDSSISQMLW as the substance, how does the amyloid nucleation score read?
The amyloid nucleation score was “inactive”.

Which amyloid nucleation score does the source give for MTQVQCLTSVNWKVTHVLHR here?
The amyloid nucleation score was 1.29 ± 0.15.

With MTWNVGRADGFLRSSCSNFR as the substance, how does the amyloid nucleation score read?
Its amyloid nucleation score is “inactive”.

Which amyloid nucleation score does the source give for MVIYSLHRTLIIICGRANLT here?
The amyloid nucleation score was “inactive”.

Which amyloid nucleation score does the source give for MVKSKSTLTCNSIEPCIVIF here?
The amyloid nucleation score was “inactive”.

With MVMNYWSTCNYSWPEVVISG as the substance, how does the amyloid nucleation score read?
The amyloid nucleation score was “inactive”.

For MVNWPDGRILGSLRNWRHQD, which amyloid nucleation score is on record?
The amyloid nucleation score was “inactive”.

With MVSDIGWYLLQFTERRSCFY as the substance, how does the amyloid nucleation score read?
The amyloid nucleation score was “inactive”.

With MVSMNSAAFLFRCHYCLGVR as the substance, how does the amyloid nucleation score read?
Its amyloid nucleation score is “inactive”.

With MVVLAVGRVKLAVYGCRKHG as the substance, how does the amyloid nucleation score read?
The amyloid nucleation score was “inactive”.

Which amyloid nucleation score does the source give for MVYIKILHFVILMSMHFN here?
The amyloid nucleation score was “inactive”.

Which amyloid nucleation score does the source give for MWMLLFGCSSCWWSCNRLSP here?
Its amyloid nucleation score is -0.239 ± 0.8.

With MWWGLAPIFWLLITTTDCGY as the substance, how does the amyloid nucleation score read?
The amyloid nucleation score was “inactive”.

For MYAVSGVNAQGWWLLADYEL, which amyloid nucleation score is on record?
The amyloid nucleation score was “inactive”.

For MYETVR, which amyloid nucleation score is on record?
The amyloid nucleation score was “inactive”.

For MYFYYYGSRYYNNSDCLLSS, which amyloid nucleation score is on record?
Its amyloid nucleation score is “inactive”.

With MYLFRENGHQSGNVY as the substance, how does the amyloid nucleation score read?
Its amyloid nucleation score is “inactive”.

For MYLITGAFLCIHQHG, which amyloid nucleation score is on record?
Its amyloid nucleation score is 1.71 ± 0.075.

With MYLIYGHGTIIICTESVSVH as the substance, how does the amyloid nucleation score read?
Its amyloid nucleation score is 0.361 ± 0.15.

Which amyloid nucleation score does the source give for MYRNECSMLSSIHLTVPSGN here?
The amyloid nucleation score was “inactive”.

For MYSHRRGRKLRLLESFYNLS, which amyloid nucleation score is on record?
The amyloid nucleation score was “inactive”.

For NAFLIGTDILRFMRVLFKQL, which amyloid nucleation score is on record?
The amyloid nucleation score was “inactive”.

With NAGYSNRCQIGYICSVRACK as the substance, how does the amyloid nucleation score read?
Its amyloid nucleation score is “inactive”.

For NAHLRCMTTILGLFQTFGRG, which amyloid nucleation score is on record?
Its amyloid nucleation score is 2.02 ± 0.063.

For NAIGEISSVYSCTL, which amyloid nucleation score is on record?
The amyloid nucleation score was “inactive”.

With NALRFNLWMLNTVKVEYRSD as the substance, how does the amyloid nucleation score read?
Its amyloid nucleation score is 2.15 ± 0.067.

Which amyloid nucleation score does the source give for NAVRLVGSPAVVVSTMGHN here?
Its amyloid nucleation score is “inactive”.

For NAWIFVKRFS, which amyloid nucleation score is on record?
The amyloid nucleation score was “inactive”.

Which amyloid nucleation score does the source give for NAYTAHGYDKLRNQSKVAYR here?
Its amyloid nucleation score is “inactive”.

Which amyloid nucleation score does the source give for NAYVEGRSWVLVIENKDFAV here?
Its amyloid nucleation score is “inactive”.

Which amyloid nucleation score does the source give for NCGRNRNPPTESCPEVGPRL here?
The amyloid nucleation score was “inactive”.

For NCGVMEYGGILISYFE, which amyloid nucleation score is on record?
Its amyloid nucleation score is “inactive”.

For NCKALGFNWALMGKSMSLRG, which amyloid nucleation score is on record?
The amyloid nucleation score was “inactive”.

Which amyloid nucleation score does the source give for NCLGPWPCLTTILYLRSLEF here?
Its amyloid nucleation score is “inactive”.

Which amyloid nucleation score does the source give for NCMTLCLIDIRYSFENFFSF here?
The amyloid nucleation score was 2.18 ± 0.071.

For NCSELGSS, which amyloid nucleation score is on record?
Its amyloid nucleation score is “inactive”.

Which amyloid nucleation score does the source give for NCSWGRRKETTDLSGSKCWT here?
The amyloid nucleation score was 0.881 ± 0.23.

For NCVCEWTAFLYIPSIWGFEH, which amyloid nucleation score is on record?
The amyloid nucleation score was 1.78 ± 0.098.

Which amyloid nucleation score does the source give for NCWVNKIDVFLAESSMQCKA here?
The amyloid nucleation score was “inactive”.

For NDFSKGLCMWTFNWNDTYDQ, which amyloid nucleation score is on record?
Its amyloid nucleation score is 1.75 ± 0.077.

For NDIITLSQTLVELSPFGWLS, which amyloid nucleation score is on record?
Its amyloid nucleation score is “inactive”.

Which amyloid nucleation score does the source give for NDLWIEMFKS here?
The amyloid nucleation score was “inactive”.

With NEDLIDVQVVHC as the substance, how does the amyloid nucleation score read?
The amyloid nucleation score was “inactive”.

Which amyloid nucleation score does the source give for NEFVSYNLLVTGGWSRCWYF here?
The amyloid nucleation score was “inactive”.

For NEHGEAGCAYEAKGAVGVKS, which amyloid nucleation score is on record?
Its amyloid nucleation score is “inactive”.

With NENFTNAQQNFYDCVF as the substance, how does the amyloid nucleation score read?
Its amyloid nucleation score is “inactive”.

With NENTALSTWAPGYLINSYRA as the substance, how does the amyloid nucleation score read?
Its amyloid nucleation score is “inactive”.

Which amyloid nucleation score does the source give for NERREANGWSYRDLHGSGFE here?
Its amyloid nucleation score is “inactive”.

For NEWIKDINVI, which amyloid nucleation score is on record?
The amyloid nucleation score was “inactive”.

Which amyloid nucleation score does the source give for NFCFLCSWCIL here?
The amyloid nucleation score was 2.56 ± 0.052.

For NFFAACNMMVLPFSMDFCSR, which amyloid nucleation score is on record?
Its amyloid nucleation score is 2.77 ± 0.071.

With NFFCSA as the substance, how does the amyloid nucleation score read?
Its amyloid nucleation score is “inactive”.

Which amyloid nucleation score does the source give for NFLKSG here?
Its amyloid nucleation score is “inactive”.

For NFLLVPYLSPKLDMGGYHLW, which amyloid nucleation score is on record?
The amyloid nucleation score was “inactive”.

Which amyloid nucleation score does the source give for NFLSSNFKKALHLFPISDCN here?
Its amyloid nucleation score is “inactive”.

For NFPGLTASMIKCGGNQCYVG, which amyloid nucleation score is on record?
Its amyloid nucleation score is “inactive”.

With NFQTNGTLKHNN as the substance, how does the amyloid nucleation score read?
Its amyloid nucleation score is “inactive”.

For NFRLSVLKVLCYVIVED, which amyloid nucleation score is on record?
The amyloid nucleation score was 2.14 ± 0.057.

For NFSCSSRNRWMCMDVGKVCR, which amyloid nucleation score is on record?
Its amyloid nucleation score is -0.287 ± 0.34.

With NFTSFCFSKMSRLEDSGQ as the substance, how does the amyloid nucleation score read?
Its amyloid nucleation score is “inactive”.

Which amyloid nucleation score does the source give for NFVPVYSLSRRAVLGHTGWC here?
The amyloid nucleation score was “inactive”.

With NFWNWLHNPWAPM as the substance, how does the amyloid nucleation score read?
The amyloid nucleation score was “inactive”.

Which amyloid nucleation score does the source give for NGEKLFSEDVVSYWVDVYSR here?
Its amyloid nucleation score is “inactive”.

For NGFKEGLIAVLREQYLSYQ, which amyloid nucleation score is on record?
The amyloid nucleation score was “inactive”.

For NGHWL, which amyloid nucleation score is on record?
Its amyloid nucleation score is “inactive”.

With NGMASMIRGIYNSVPHIRGL as the substance, how does the amyloid nucleation score read?
The amyloid nucleation score was “inactive”.

For NGPEGSLFDLSDFCHFCLNR, which amyloid nucleation score is on record?
The amyloid nucleation score was 0.955 ± 0.14.

For NGVFWGRKSRSYEFWSFYFQ, which amyloid nucleation score is on record?
The amyloid nucleation score was -0.052 ± 0.62.

With NGVVLLQIKIRDPRSCWWGV as the substance, how does the amyloid nucleation score read?
Its amyloid nucleation score is “inactive”.

For NHKEWWFTVYLTSGVVCDLG, which amyloid nucleation score is on record?
The amyloid nucleation score was “inactive”.

For NHLIQIG, which amyloid nucleation score is on record?
The amyloid nucleation score was “inactive”.

With NHQLGIGYFCDTYLCDHWDP as the substance, how does the amyloid nucleation score read?
The amyloid nucleation score was “inactive”.

With NHVTVYVI as the substance, how does the amyloid nucleation score read?
The amyloid nucleation score was 0.555 ± 0.29.

Which amyloid nucleation score does the source give for NIARRTIKLTPFFSIFCVYS here?
Its amyloid nucleation score is 3.2 ± 0.055.

For NIGWSVCERL, which amyloid nucleation score is on record?
Its amyloid nucleation score is “inactive”.

With NIGYSMLESPFIIIDICNSC as the substance, how does the amyloid nucleation score read?
Its amyloid nucleation score is 0.619 ± 0.13.

For NILPRRGEQAV, which amyloid nucleation score is on record?
The amyloid nucleation score was “inactive”.

Which amyloid nucleation score does the source give for NINIMPG here?
Its amyloid nucleation score is “inactive”.

For NIRWGTYVSKFVLYLAITTR, which amyloid nucleation score is on record?
The amyloid nucleation score was “inactive”.

For NIRYVWCQKRLTCARSWNPV, which amyloid nucleation score is on record?
Its amyloid nucleation score is “inactive”.

Which amyloid nucleation score does the source give for NISLN here?
Its amyloid nucleation score is “inactive”.

With NISYKW as the substance, how does the amyloid nucleation score read?
The amyloid nucleation score was 0.377 ± 0.34.

For NIWNWNNRVLFCEAGMGTCI, which amyloid nucleation score is on record?
Its amyloid nucleation score is “inactive”.

With NIWVQ as the substance, how does the amyloid nucleation score read?
The amyloid nucleation score was “inactive”.

For NKGSVDGYMFSTGVTFLMLE, which amyloid nucleation score is on record?
Its amyloid nucleation score is “inactive”.

With NKLIRSEVSLLAMCMCSGNG as the substance, how does the amyloid nucleation score read?
The amyloid nucleation score was “inactive”.

With NKVISSSLTFRFIKVQFIYH as the substance, how does the amyloid nucleation score read?
The amyloid nucleation score was “inactive”.

Which amyloid nucleation score does the source give for NKVVMGNLWGPPVFDRCDKG here?
Its amyloid nucleation score is “inactive”.

With NLCFCALCGKYIRVNVVAM as the substance, how does the amyloid nucleation score read?
The amyloid nucleation score was 1.52 ± 0.088.

For NLCRNDDSLFFCSS, which amyloid nucleation score is on record?
The amyloid nucleation score was “inactive”.
